Blank lines part the entries; values can stand above or below the molecule they belong to.
Columns and labels:
[1] = target: atypical protein kinase C ι (aPKCι) (Homo sapiens, UniProt P41743)
[2] = target: T1, GST-PAR6 (Par6a, cds) (human, UniProt Q9NPB6 1-346); assay: pull-down
T1 sequence (looked up): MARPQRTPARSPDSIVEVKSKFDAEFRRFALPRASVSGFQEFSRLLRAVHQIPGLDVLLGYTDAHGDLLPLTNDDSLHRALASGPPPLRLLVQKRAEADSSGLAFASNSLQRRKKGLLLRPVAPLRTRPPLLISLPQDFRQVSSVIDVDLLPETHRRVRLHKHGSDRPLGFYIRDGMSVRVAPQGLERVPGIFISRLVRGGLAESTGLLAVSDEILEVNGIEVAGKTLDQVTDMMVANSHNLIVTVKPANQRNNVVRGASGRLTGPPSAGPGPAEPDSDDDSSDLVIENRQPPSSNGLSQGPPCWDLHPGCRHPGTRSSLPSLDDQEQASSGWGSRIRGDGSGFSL

Molecule: O=C(O)CC([S][Au])C(=O)O (stereo not drawn) [ATM, aurothiomalate]
IC50 [1]: 20.4 µM

mean binding ratio at 10 μM ATM (0 μM ATM = 100%) [2]: 63.8%
mean binding ratio at 50 μM ATM (0 μM ATM = 100%) [2]: 32.7%
B1: HIS-aPKCι, PB1 domain of human atypical protein kinase C ι (amino acids 1–113) (domain or fragment, UniProt P41743 1-113, looked up)
chain: MPTQRDSSTMSHTVAGGGSGDHSHQVRVKAYYRGDIMITHFEPSISFEGLCNEVRDMCSFDNEQLFTMKWIDEEGDPCTVSSQLELEEAFRLYELNKDSELLIHVFPCVPERP

Reference: publication PMC3973203 (Cell Death & Disease, 2014)
